Test results taken from article PMC2922928 (Nature structural & molecular biology, 2010).

How the values were obtained:
Experiment in all cases: ELISA
[1] = biological target: His-tagged p53(ΔC30) purified from bacteria (human, UniProt P04637 1-363)
[2] = biological target: His-tagged p53 purified from bacteria (human, UniProt P04637 1-393)
[3] = biological target: Flag-p53 purified from insect cells (unacetylated) (human, UniProt P04637 1-393)

Measured: binding result

B1: untagged Mdm2(10–139) (domain or fragment)
chain: GSMTDGAVTTSQIPASEQETLVRPKPLLLKLLKSVGAQKDTYTMKEVLFYLGQYIMTKRLYDEKQQHIVYCSNDLLGDLFGVPSFSVKEHRKIYTMIYRNLVVVNQQESSDSGTSVSENRCHLEGGSDQKDLV
binds: [1] | [2] | [3]
